Test system: MS2 coat protein
Experiment: apparent KD of MS2 coat protein; designed switch direction (-1 OFF switch, 1 ON switch): -1; higher = weaker reporter binding
How it was run: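 The apparent KD reported per design is the median over clusters of curve fits to normalised cluster fluorescence. The RNA switches were transcribed on Illumina chips by stalled E. coli RNA polymerase. SNAP-549-labelled MS2 coat protein was titrated from 0.7 or 1.5 nM, doubling up to 3 µM, in Tris-HCl pH 7.5 buffer containing KCl, MgCl2, BSA, DTT, tRNA and Tween-20, with no input, 200 uM small-molecule ligand, or an oligonucleotide input.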

[1] = Eterna round: R95, input ligand: microRNA oligo, concentration not stated
[2] = Eterna round: R95, input ligand: FMN 200 uM
[3] = Eterna round: R95, input ligand: none
[4] = input ligand: microRNA oligo, concentration not stated

| Sequence | apparent KD of MS2 coat protein (input ligand: FMN 200 uM) [nM] | apparent KD of MS2 coat protein (input ligand: none) [nM] | apparent KD of MS2 coat protein [1] [nM] | apparent KD of MS2 coat protein [2] [nM] | apparent KD of MS2 coat protein [3] [nM] | apparent KD of MS2 coat protein [4] [nM] |
| --- | --- | --- | --- | --- | --- | --- |
| AAGAGCGUAGGAUAUACAUGAGGAUCACCCAUGUGUGGAGGACCUGGCCACAUAAGGAGUAGAAGGGCGCAUCU [Eternabot (L2) Solution 92] (Eterna round: R97, puzzle: Exclusion 3) | 110 | 87 | – | – | – | – |
| AAGAGGUCAGGAUAUACGGAGAGAGGGAGUUGGUGAGGGUAACAUGAGGAUCACCCAUGUAGAAGGGACUAAGA [JR_Exclu2_Sub078] (puzzle: Exclusion 2) | – | – | 22.4 | – | – | – |
| AAGAGGUCAGGAUAUACGGGAAGAGAGAGAAGUAGAGGGUAACAUGAGGAUCACCCAUGUAGAAGGGACUAAGA [JR_Exclu2_Sub072] (puzzle: Exclusion 2) | – | – | 29.6 | 34.5 | 33.4 | – |
| AAGAUGUGAGGAUAUCACGAGAGCGUCACACGGACGCCCUCUGAGAAGGCACAUGAGGAUCACCCAUGUCCAAA [EX4 A.22] (Eterna round: R97, puzzle: Exclusion 4) | 387 | 65 | – | – | – | – |
| AAGCUCACACGCUCGUCUUACAUGAGGAUCACCCAUGUCGCCGAGCUUCACAGGCUGAAGCUCAUAUAGGGUCAUGA [Eternabot (L2) Solution 26] (Eterna round: R97, puzzle: Sensor, turn-off variant 1) | 85.1 | 91.7 | – | – | – | – |
| AAGGAACAUGAGGAUCACCCAUGUGAGGAUAUGUGAGAAGGAUUUGAGAAGGAGAGGGACAGAAGGCACUAGGA [JR_Exclu1_Sub081] (puzzle: Exclusion 1) | – | – | 34.7 | – | – | – |
| AAGGGUGCCUUUAGAAAGACAUGAGGAUCACCCAUGUAGACUGAGGAUAUCCACUCCUAAGGACCGGAGAAGGCAGUGUAAUGC [Ex NG3 #62] (Eterna round: R96, puzzle: Exclusion NG 3) | 62.1 | 31.8 | – | – | – | 18.6 |
| AAGGUGUUAGGAUAUCGGAGGUUGAGGCAGACGGGAAUUUUCGAGAAGGAACAUGAGGAUCACCCAUGUAGUAG [JR_Exclu4_Sub038] (puzzle: Exclusion 4) | – | – | 22.7 | 19.1 | 21.3 | – |
| AAGUACCGUCACGAAAGUGAUGGUACAACAAGCAUGUAAACAUGAGGAUCACCCAUGUCCUCAUAUGCUCGUCUUAU [Sensor 3 - 63] (puzzle: Sensor v3, turn-off variant 2) | – | – | 32.5 | 480 | 533 | – |
| AAGUACCGUCACGAUAGUGAUGGUACAACAAGCAUGUAAACAUGAGGAUCACCCAUGUCCUCAAUUGCUCGUCUUAU [Sensor 3 - 68] (Eterna round: R96, puzzle: Sensor v3, turn-off variant 2) | 956 | 1060 | – | – | – | 809 |
| AAGUACCGUCACGAUAGUGAUGGUACAACAAGCAUGUAAACAUGAGGAUCACCCAUGUCCUCAAUUGCUCGUCUUAU [Sensor 3 - 68] (puzzle: Sensor v3, turn-off variant 2) | – | – | 570 | 692 | 842 | – |
| AAGUACCGUCACGAUAGUGAUGGUACAACAAGUGGUGAAACAUGAGGAUCACCCAUGUCCUCAAUUGCUCGUCUUAU [Sensor 3 - 85] (puzzle: Sensor v3, turn-off variant 2) | – | – | 231 | 1030 | 999 | – |
| AAGUACCGUCACGAUAGUGAUGGUACAGCAAGCAUGUAAACAUGAGGAUCACCCAUGUCCUCAAUUGCUCGUCUUAU [Sensor 3 - 70] (puzzle: Sensor v3, turn-off variant 2) | – | – | 785 | 725 | 764 | – |
| AAGUACUACAAGCUUCGGGACAUGAGGAUCACCCAUGUUCGUCUUAUUGAUCUAGGUACGCUGACGUACCUAGAUCA [Mat - Sensor v3 - turn-off var 1 - JL Mod - D12] (puzzle: Sensor v3, turn-off variant 1) | – | – | 59.4 | 14.9 | 14.7 | – |
| AAGUAGACGGUGAGGAUAUAGGUCGAAUGACCGAUUUAGAAGGCACAUGAGGAUCACCCAUGUGGGUAACGUCG [Brourd's EX4 #30] (Eterna round: R97, puzzle: Brourd's mod of Exclusion 4) | 24.1 | 27.5 | – | – | – | – |
| AAGUAUAGAGGAUAUAGUAGGUACUACAUGAGGAUCACCCAUGUUCUUCAUUACGUAUUUCUAGAAGGCUGAUAAA [EX-5 Malc#26] (puzzle: Exclusion 5) | – | – | 174 | 484 | 268 | – |

| Sequence | apparent KD of MS2 coat protein (input ligand: FMN 200 uM) [nM] | apparent KD of MS2 coat protein (input ligand: none) [nM] | apparent KD of MS2 coat protein [1] [nM] | apparent KD of MS2 coat protein [2] [nM] | apparent KD of MS2 coat protein [3] [nM] | apparent KD of MS2 coat protein [4] [nM] |
| --- | --- | --- | --- | --- | --- | --- |
| AAGUAUAGAGGAUAUAGUGAGUACUACAUGAGGAUCACCCAUGUUCUUCAAAGCGUACUUCUAGAAGGCUGUUAAA [EX-5 Malc#17] (puzzle: Exclusion 5) | – | – | 263 | 452 | 214 | – |
| AAGUCGACGGUGAGGAUAUUAGUUGAACGACAGAUUAAGAAGGUACAUGAGGAUCACCCAUGUGGGUAGCGUUG [Brourd's EX4 #78] (Eterna round: R97, puzzle: Brourd's mod of Exclusion 4) | 73.2 | 80.9 | – | – | – | – |
| AAUAAAUAGGAGGAUAUCGUAUCGGAAACGAUACGAGAAGGUCUAACAUGAGGAUCACCCAUGUUCCUCAAUAA [Mat - Exclusion 6 - Eli Mod - D45] (puzzle: Exclusion 6) | – | – | 39.4 | – | – | – |
| AAUAACAAGUAAGAUCCUAACAUGAGGAUCACCCAUGUGCUCGUCUUAUAAAGUACUAUCACGAAAGUGAUAGUACA [Sensor 3, v1 - 46] (puzzle: Sensor v3, turn-off variant 1) | – | – | 153 | 36.5 | 43.1 | – |
| AAUAACAAGUUGAUCCUUCACAUGAGGAUCACCCAUGUGCUCGUCUUGUAAAGUACUAUCACGAAAGUGAUAGUACA (Eterna round: R97, puzzle: Sensor, turn-off variant 1) | 256 | 249 | – | – | – | – |
| AAUAACAGAGGAUAUACUAUUUUAUGUAUUUAUUAUUUUGAACAUGAGGAUCACCCAUGUAGAAGGCUGAGUAA [JMF 35] (puzzle: Exclusion 2) | – | – | 25.3 | – | – | – |
| AAUAACAGAGGAUAUACUAUUUUAUGUGUUUGUUAUUUUAAACAUGAGGAUCACCCAUGUAGAAGGCUGAAUGA [JMF 56] (puzzle: Exclusion 2) | – | – | 25 | – | – | – |
| AAUAACAGGCCGAUCCUAAACAUGAGGAUCACCCAUGUGCUCGUCUUGUAAAGUACUAUCACGAAAGUGAUAGUACA [Sensor v3, turn-off variant 1 (MOD of Eli's v1-59 v.2 )] (puzzle: Sensor v3, turn-off variant 1) | – | – | 419 | 39.9 | 31.4 | – |
| AAUAACAUGUUGAUCAAAUACAUGAGGAUCACCCAUGUAAGCUUUUUGUUCGUAGAUUAACACUAAUAAUAAUAAUA [Stov1new/2-B] (Eterna round: R97, puzzle: Sensor, turn-off variant 1) | 15.8 | 16.7 | – | – | – | – |
| AAUAAGUAUGUGAGGAUAUUGAGGAGGAGGAGGGACAAGAAGGCACAUGAGGAUCACCCAUGUAGGAAAGGACG [JR_BMEx4_Sub002] (Eterna round: R97, puzzle: Brourd's mod of Exclusion 4) | 46.9 | 28 | – | – | – | – |
| AAUAAGUGAGGAUAUGGAAUAAUAAAUAAAAUAAUAAAUAACCAGAAGGCACAUGAGGAUCACCCAUGUAAUAA [JMF's solution 3] (puzzle: Exclusion 4) | – | – | 23.7 | 27.4 | 21.4 | – |
| AAUAAUAAGGAGGAUAUCGUAUCGGAAACGAUACGAGAAGGCCUAACAUGAGGAUCACCCAUGUUCCUCAAUAA [Fiskers Ex 6 - 2] (puzzle: Exclusion 6) | – | – | 297 | 1320 | 311 | – |
| AAUAAUAAGGAGGAUAUCGUAUCGGAAACGAUACGAGAAGGCCUAACAUGAGGAUCACCCAUGUUCCUUAAUAA [Fiskers Ex 6 - 4] (puzzle: Exclusion 6) | – | – | 22 | 33.3 | 18.2 | – |
| AAUAAUAAGGAGGAUAUCGUAUCGGAAACGAUACGAGAAGGUCUAACAUGAGGAUCACCCAUGUUCCUCAAAUA [Mat - Exclusion 6 - Eli Mod - D44] (puzzle: Exclusion 6) | – | – | 37.1 | – | – | – |
| AAUAAUGAGUAGGAUAUCACUAGCGAUAGCUAGUGAGAAGGGCUCACAUGAGGAUCACCCAUGUGUUCCAAUAA [Mod4 Ex6/6-A4 by Brourd] (Eterna round: R97, puzzle: Exclusion 6) | 88.1 | 31.2 | – | – | – | – |

Reference: the supplement of paper PMC9170038
